Measured values published in PMC3673938, “Two Distinct Calmodulin Binding Sites in the Third Intracellular Loop and Carboxyl Tail of Angiotensin II (AT1A) Receptor” (PLoS ONE, 2013).
Positions count from the first letter of the chain named. Numbers in names are those of the source.

B1: GST-ATct(297–359): GST fused to the carboxyl terminal tail (amino acids 297 to 359) of the AT1A receptor (protein, UniProt P25095 297-359, looked up, fragment)
chain: LNPLFYGFLGKKFKKYFLQLLKYIPPKAKSHSSLSTKMSTLSYRPSDNMSSSAKKPASCFEVE
modifications: carboxyl tail GST fusion
notes: GST fused to the carboxyl terminal tail (amino acids 297 to 359) of the AT1A receptor
B2: GSTATct(F313A): F313A mutant of GST-ATct(297–359) (protein, UniProt P30556 297-359, looked up, fragment F313A)
chain: B1 chain with K15R, F17A, S33N, M49V, A53T, S58P
modifications: GST fusion

Key:
[1] = system: purified bovine brain CaM; assay: GST-fusion protein pull-down with purified bovine brain CaM; assay type: binding; conditions: 50 pmol GST-fusion protein, 50 pmol purified bovine CaM, 100 mM Tris-HCl pH 7.5; Ca2+ dependent (0.1 mM CaCl2 vs 1 mM EGTA); repeated five times
Procedure: (§1) GST-fusion proteins were expressed in E. coli BL21 strain cells, and purified by affinity chromatography using immobilized glutathione sepharose 4B beads. Proteins were eluted by reduced glutathione in 50 mM Tris-HCl buffer (pH 8.0), and then concentrated with Centricon filters with 3 kDa MW cut-off. The eluted proteins were either used immediately or stored at −80°C for future use. For GST-fusion protein pull-down assays, fusion proteins were incubated with either cell lysates or purified protein(s) at 4°C for 3 hours, following which glutathione-sepharose 4B beads were added and incubation continued at 4°C for 1 hour. The beads were then recovered by brief centrifugation, followed by 4 washes with the corresponding incubation buffer. The fusion proteins and the proteins to which they were bound were then separated by SDS-PAGE, and identified by staining with Coomassie blue or by immunoblot.
(§2) Figure 1 Interactions of the i3 loop and carboxyl tail of the AT1A receptor with CaM. A, Construction of GST-fusion proteins. Upper panel illustrates a schematic structure of the AT1A receptor and constructs of GST-fusion proteins of the i3 loop and carboxyl tail of the receptor. The numbers represent positions of amino acids in the receptor. […]

[2] = system: G protein βγ subunits; assay: GST-fusion protein pull-down of G protein βγ subunits, with or without CaM; assay type: binding, bovine; conditions: 2 pmol GST-fusion protein, 2 pmol Gβγ, CaM pre-incubated 30 minutes, 20 mM Tris-HCl, 70 mM NaCl, 0.1 mM CaCl2, pH 7.5; 4 or 5 experiments
Procedure: as §1
Figure 7 Effect of CaM on G protein βγ subunit interaction with wild ATi3 or ATct. A. Interaction of G protein βγ subunits and ATi3 or ATct. 50 pmol of GST-ATi3(213–242) or GST-ATct(297–359) were incubated with different amounts of G protein Gβγ subunits in a buffer containing 20 mM Tris-HCl and 70 mM NaCl (pH 7.5). Interactions were assessed by GST-fusion protein pull-down assay, and blots were probed with a specific antibody against Gβ subunits (upper panel). 1 pmol of Gβγ subunit was interacted with different amounts of GST-ATi3(213–242) and GST-ATct(297–359). Interaction was assessed by immunoblot against Gβ subunits (lower panel). B. CaM inhibits the interaction between G protein Gβγ subunits and ATi3 or ATct. 2 pmol of GST-ATi3(213–242) or GST-ATct(297–359) were incubated with different concentrations of pure bovine brain CaM for 30 minutes in a buffer (20 mM Tris-HCl and 70 mM NaCl with 0.1 mM CaCl2, pH 7.5) following which 2 pmol of Gβγ subunits were added and incubated for 1 hour. GST-fusion proteins and their interacting proteins were pulled down by gluthathione-sepharose 4B beads, and subjected to immunoblot. Blots were probed with a specific antibody against Gβ subunits. The summary graph represents means ± S.E. from four independent experiments. C. Effects of CaM on the interactions between G protein βγ subunits and mutated ATi3 and ATct. The method is same as the described in the Figure 7B, except that we used mutated GST-fusion proteins, GST-ATi3(213–242)W219A, ATct(297–359)F309A, and ATct(297–359)F313A. The summary graph represents mean ± S.E. from 4 or 5 independent experiments.

[3] = system: CaM in rat brain lysates; assay: GST-fusion protein pull-down from rat brain lysates; assay type: binding; conditions: 50 pmol GST-fusion protein, 500 µg rat brain lysates, 20 mM Tris-HCl, 70 mM NaCl, pH 7.5; Ca2+ dependent; repeated five times
Procedure: as §1, §2

Molecule | interaction with purified CaM (pull-down, in words) [1] | Gβγ binding to GST-fusion protein in the presence of 2 pmol of CaM [2] [%] | Gβγ binding to GST-fusion protein in the presence of 10 pmol of CaM [2] [%] | association with CaM from rat brain lysates (pull-down, in words) [3]
B1 | associated | 73 | 34 | associated
B2 |  | 99 | 83 | 
